Here are results for 37 variants from the RNAGym collection of RNA variant scans (doi:10.1093/molbev/msab373).

The chains are these.
B1: Azoarcus group I ribozyme (parent)
chain: GUGCCUUGCGCCGGGAAACCACGCAAGGGAUGGUGUCAAAUUCGGCGAAACCUAAGCGCCCGCCCGGGCGUAUGGCAACGCCGAGCCAAGCUUCGGCGCCUGCGCCGAUGAAGGUGUAGAGACUAGACGGCACCCACCUAAGGCAAACGCUAUGGUGAAGGCAUAGUCCAGGGAGUGGCGAAAGUCACACAAACCGG

Variants of B1 are the subject of this data set. Briefly: reverse-splicing fitness (ratio to wild type); higher = more active; in vitro selection; Mg2+ level not given. An outline of the steps: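 An in vitro group I ribozyme library with randomized positions was T7-transcribed and gel-purified. In triplicate, 10 pmol RNA in EPPS pH 7.5 was reacted with 50 pmoles of a 30-nt RNA substrate for 1 h at 37 °C across several added MgCl2 levels (1–48 mM), then stopped with EDTA. Products were reverse transcribed from a substrate-complementary primer, PCR-amplified and sequenced (HiSeq 4000). Fitness is a variant's read proportion after selection over that before, normalised to wild type.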
As for C169U U176A, the reverse-splicing fitness was 0.114.
Then C169U U176G, with 0.0131.
Next, C169U U176C: 0.182.
With C150U C169U U176C, the reverse-splicing fitness was found to be 0.128.
As for C150U C169U U176A, the reverse-splicing fitness is 0.0877.
For the variant C150U C169U U176G, the reverse-splicing fitness was determined as 0.0109.
Next, C150G U176A: 0.219; C150G U176G: 0.0576.
Take C150G U176C: the reverse-splicing fitness came out at 0.286.
Then C169G U176G, with 0.00806; and C169G U176C, with 0.137.
Next, C169G U176A: 0.0721; U176C: 0.815.
Turning to U176G, the reverse-splicing fitness stood at 0.348.
Then U176A, with 0.87; and C150U C169G U176A, with 0.0516.
Turning to C150U C169G U176G, the reverse-splicing fitness is 0.0074.
As for C150U C169G U176C, the reverse-splicing fitness worked out at 0.0925.
As to C150G C169U U176G, the reverse-splicing fitness worked out at 0.00596.
Next, C150G C169U U176A: 0.0131; C150G C169U U176C: 0.0326; C150U C169A U176C: 0.0431.
Next, C150U C169A U176G: 0.00623; C150U C169A U176A: 0.0259.
As for C150U, the reverse-splicing fitness stood at 0.878.
Then C150U C169G, with 0.172; and C150U C169A, with 0.0973; and C150U C169U, with 0.247.
In the case of C169A U176C, the reverse-splicing fitness was 0.0638.
In the case of C169A U176G, the reverse-splicing fitness is 0.0054.
Then C169A U176A, with 0.0336; and C150U U176C, with 0.869.
Regarding C150U U176G, the reverse-splicing fitness was 0.306.
Then C150U U176A, with 0.814.
C169U: the reverse-splicing fitness was found to be 0.407.
Next, C169G: 0.323; C169A: 0.18.
